T1: LAG-3-hFc protein (human LAG-3 extracellular region with hFc tag) (human, UniProt P18627 23-450)
T1 construct: also called hLAG-3-hFc; LAG-3 protein; not shown: human IgG Fc fragment (hFc) of the pCpC vector
T1 sequence: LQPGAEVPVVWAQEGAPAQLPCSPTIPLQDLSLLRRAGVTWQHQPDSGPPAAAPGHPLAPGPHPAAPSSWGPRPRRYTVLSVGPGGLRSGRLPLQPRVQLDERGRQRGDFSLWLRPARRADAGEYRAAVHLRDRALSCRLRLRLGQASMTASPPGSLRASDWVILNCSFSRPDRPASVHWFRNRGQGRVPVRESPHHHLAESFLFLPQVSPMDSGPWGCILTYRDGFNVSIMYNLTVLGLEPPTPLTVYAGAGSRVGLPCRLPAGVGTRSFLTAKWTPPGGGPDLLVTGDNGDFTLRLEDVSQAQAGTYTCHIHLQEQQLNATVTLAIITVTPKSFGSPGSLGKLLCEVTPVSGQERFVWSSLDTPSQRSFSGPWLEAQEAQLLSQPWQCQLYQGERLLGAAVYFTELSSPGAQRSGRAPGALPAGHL

T2: monkey LAG-3 on cells (HEK293-cLAG-3 stable cell line) (monkey, UniProt P18627 24-525 (human entry))
T2 construct: Full-length monkey (Chinese monkey) LAG-3 gene expressed on HEK293 cells
T2 chain: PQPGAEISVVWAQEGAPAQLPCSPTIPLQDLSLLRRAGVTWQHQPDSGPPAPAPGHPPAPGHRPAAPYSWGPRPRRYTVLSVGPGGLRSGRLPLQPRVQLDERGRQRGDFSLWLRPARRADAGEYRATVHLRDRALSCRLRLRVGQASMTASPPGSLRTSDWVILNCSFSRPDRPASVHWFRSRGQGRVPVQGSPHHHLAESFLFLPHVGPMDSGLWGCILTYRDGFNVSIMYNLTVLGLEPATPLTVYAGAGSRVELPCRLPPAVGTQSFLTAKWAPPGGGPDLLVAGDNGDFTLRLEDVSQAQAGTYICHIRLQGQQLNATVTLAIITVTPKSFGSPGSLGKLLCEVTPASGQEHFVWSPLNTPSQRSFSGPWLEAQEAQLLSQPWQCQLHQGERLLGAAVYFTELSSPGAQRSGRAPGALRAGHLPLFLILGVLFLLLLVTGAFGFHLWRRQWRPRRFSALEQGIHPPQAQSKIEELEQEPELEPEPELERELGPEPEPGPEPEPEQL


How the values were obtained:
[1] = target: T1, LAG-3-hFc protein (human LAG-3 …); test: FACS, inhibition of LAG-3-hFc binding to MHC II on Raji cells, antibody 0.274 nM
Procedure: (§1) The FACS reaction plate incubating the Raji cells was centrifuged to discard the supernatant. The above mixture was added as 100 μl per well to Raji cells and incubated on ice for 1-2 hours. The plate was washed twice with blocking solution (PBS, 2% fetal bovine serum) by centrifugation, added with 100 microliters of fluorescent (Alexa 488)-labeled secondary antibodies per well, and incubated on ice for 1.0 hours. The plate was washed 2-3 times by centrifugation with blocking solution (PBS, 2% fetal bovine serum), added with 100 microliters of PBS per well to suspend cells, and detected using FACS (FACS Calibur, BD) and the results were analyzed. Wherein, the IgG control was murine IgG, and the data in the table is the inhibition rate (%).

[2] = target: T2, monkey LAG-3 on cells (HEK293-cLAG-3 …); test: FACS, HEK293-cLAG-3, antibody 200.000 nM
Source text: (§2) The pIRES plasmid with the monkey-derived full-length gene was transfected into the HEK293 cell line to construct a HEK293 stable cell line containing monkey LAG-3 (herein referred to as HEK293-cLAG-3 stable cell line). The HEK293-hLAG-3 stable cell line and HEK293-cLAG-3 stable cell line were expanded in a T-75 cell culture flask to a 90% confluence. The medium was aspirated, and the cells were washed with HBSS (Hanks' Balanced Salt Solution) 1-2 times, then treated with a enzyme-free cell dissociation fluid (Versene solution: Life technology) and the cells were collected. The cells were washed with HBSS buffer for 1-2 times. After counted, the cells were diluted with HBSS to 1-2×10⁶ cells per ml, added with 1% goat serum blocking solution, incubated on ice for 20-30 minutes, and then washed with HBSS for 2 times by centrifugation. The collected cells were suspended in the FACS buffer (HBSS+1% BSA) to 2×10⁶ cells/ml, added as 100 microliters per well to a 96-well FACS reaction plate, added with 100 microliters per well of the antibody sample to be tested, incubated on ice for 1-2 hours. The plate was washed twice with the FACS buffer by centrifugation, added with 100 microliters of fluorescent (Alexa 488)-labeled secondary antibodies per well, and incubated on ice for 0.5-1.0 hours. The plate was washed 2-3 times with FACS buffer by centrifugation, added with 100 μl fixative solution (4% Paraformaldehyde) per well to suspend the cells. 5-10 minutes later, it was washed 1-2 times with FACS buffer by centrifugation. The cells were suspended with 100 microliters of FACS buffer, FACS (FACSCalibur, BD) was used for detection and the results were analyzed.

[3] = target: T2, monkey LAG-3 on cells (HEK293-cLAG-3 …); test: FACS, HEK293-cLAG-3, antibody 0.000 nM
Source text: as §2

[4] = target: T1, LAG-3-hFc protein (human LAG-3 …); test: FACS, inhibition of LAG-3-hFc binding to MHC II on Raji cells, antibody 7.407 nM
Procedure: as §1

Row | Binder | Inhibition rate (%) [1] [%] | Mean fluorescence intensity [2] | Mean fluorescence intensity [3] | Inhibition rate (%) [4] [%]
1 | 105F1E10 mouse-human chimeric antibody (antibody, V domains shown, also called mAb009-105F1E10) VH: EVQLQQSGPELVKPGASVKMSCRASGYTFTDFKMHWMKQSHGKSLEWIGYIAPNNGGTAYNQKFRGKATLTVNESSNTAYMELRSLTSEDSAVYYCVDWDDVDYWGQGTTLTVSS VL: DIKMTQSPSSMYASLGERVTITCKASQDINSYLSWFQQKSGKSPKTLIYRANRLVDGVPSRFSGSGSGQDYSLTISSLEYEDMGIYYCLQYVEFPLTFGAGTKLELK | -10.1 | 94.5 | 2.72 | 67
2 | 405B8H3 mouse-human chimeric antibody (antibody, V domains shown, also called mAb103-405B8H3) VH: QVQLQQSGAELVRPGASVTLSCKASGYTFTDYEMHWVKQTPVHGLEWIGATDPETGNSAYNQKFKGKAIMTADKSSSTAYMELRSLTSEDSAVYYCISTGWNDWGQGTSLTVSS VL: DIKMTQSPSSMYASLGERVTITCKASQDINSYLSWFQQKPGKSPKTLIYRADRLLDGVPSRFSGSGSGQDYSLTISSLEYGDMGIYYCLQYDEFPYTFGGGTKLEIK | 4.3 | 108 | 2.9 | 95.1
3 | 409D4E10 mouse-human chimeric antibody (antibody, V domains shown, also called mAb112-409D4E10) VH: QVQLQQSGAELVRPGASVTLSCKASGNTFTDYEMHWVKQTPVHGLEWIGATDPETDNTAYNQKFKGKAILTTDKSSSTAYMELRSLTSEDSAVYYCITSGWNDWGQGTSLTVSS VL: DIKMTQSPSSMYASLGERVTITCKASQDINSYLSWFQQKPGKSPKTLIYRANRLLDGVPSRFSGSGSGQDYSLTISSLEYEDMGIYYCLQYNEFPYTFGGGTKLEIK | 11.3 | 103 | 2.99 | 94.7
4 | 409B11E12 mouse-human chimeric antibody (antibody, V domains shown, also called mAb104-409B11E12) VH: QVQLQQSGAELVRPGASVTLSCKASGYTFTDYEMHWVKQTTVHGLEWIGATDPETSYSAYNQKFKGKAILTADKSSSTAYMELRSLTSEDSAVYYCIATGWNDWGQGTSLTVSS VL: DLKMTQSPSSMYASLGERVTITCKASQDINSYLSWFQQKPGKSPKTLIYRANRLLDGVPSRFSGSGSGQDYSLTISSLEYEDMGIYYCLQYDEFPYTFGGGTKLEIK | 4.4 | 114 | 2.84 | 95.1

Source: patent US20210155689A1 (SHANGHAI PHARMAEXPLORER, published 2021)
